Source: patent US12404346B2, “Anti-naloxone and anti-naltrexone monoclonal antibodies and methods of production and use thereof” (Siemens Healthcare Diagnostics Inc., priority 2019, dated 2025)

How the values were obtained:
[1] = Randox naloxone assay, competitive chemiluminescent immunoassay; cited from earlier work
[2] = inhibition ELISA, anti-naloxone monoclonal antibodies against key opioids (FIG. 7); assay type: binding; conditions: free drug 20 μg/mL, plates coated with ovalbumin conjugate
Text: (§1) Mice with good anti-drug antibody titers and binding to free drug in the ELISA inhibition assays were selected to proceed with generation of monoclonal antibodies, in a similar manner to that described in U.S. Pat. No. 9,815,907 (issued to Sharma et al. on Nov. 14, 2017). In particular, mice with highest titers and best specificity were boosted three days prior to fusion. On the day of fusion, spleen cells were harvested from these mice and were fused with myeloma cell line P3X63Ag8.653 using PEG-assisted fusion protocols. After about ten days, hybridoma supernatants were screened for anti-naloxone and anti-naltrexone antibodies using a plate ELISA (direct binding and inhibition ELISA for specificity). Positive clones were further expanded and sub-cloned, and supernatants were purified using a Protein A SEPHAROSE® (GE Healthcare, Chicago, IL) column. Purified antibody samples were tested using ELISA for binding to the immunogen (i.e., a conjugate of drug-carrier protein) and to free opioids.
(§2) Antibody solution (Immune mouse bleeds or hybridoma clones supernatant or purified antibody) was screened using an inhibition ELISA procedure according to the following protocol. […] Plate coating was performed for 1 hour or more at room temperature or overnight at about 2° C. to 8° C. The plates were then flicked dry and blocked with 200 μL per well of blocking buffer solution (0.5% Casein solution in PBS containing 0.05% TWEEN® 20 surfactant (Croda International PLC, Snaith, United Kingdom). Plate blocking was performed by incubation for 30 minutes or more at room temperature with plate shaking. The plates were washed using a plate washer (BioTek®, Winooski, VT) with plate stacker with the washing buffer being MILLIQ® water (Millipore Corporation, Billerica, MA) containing 0.05% TWEEN® 20. The monoclonal antibody to be screened was then added to each well along with free drug as follows: 25 μL per well of appropriately diluted culture supernatant (or antibody solution) and added 25 μL of 20 μg/mL of free drug. Incubation was performed for about 1 hour at room temperature with plate shaking. The plate was washed. An enzyme conjugate (goat anti-mouse IgG coupled to HRP diluted in blocking buffer diluted to 1:3000) was added at 50 μL per well. Incubation was performed for about 1 hour at room temperature with shaking. The plate was then washed, and a chromogenic solution (TMB from Moss Substrates, Pasadena MD) was added at a volume of 100 μL per well. If a desired antibody was present in the hybridoma supernatant, then a decrease in optical density was observed compared to the well containing no free drug. The plates were read at 650 nm wavelength using an ELISA plate reader (Molecular Devices, San Jose, CA). Note: appropriate dilution of antibody solution was determined by performing a titration ELISA. The antibody dilution was chosen where around 1.0 optical density was observed.

[3] = naloxone and naltrexone specific immunoassays (FIG. 9, FIG. 10); assay type: binding; conditions: FIG. 9 and FIG. 10
Text: An EMIT® II (enzyme multiplied immunoassay, Siemens Healthineers, Newark, DE) Plus Naloxone and/or Naltrexone Assay is a homogeneous enzyme immunoassay technique used for the analysis of specific compounds in human urine. The assay is based on competition between drug in the specimen and drug labeled with glucose-6-phosphate dehydrogenase (rG6PDH) for antibody binding sites. Enzyme activity decreases upon binding to the antibody, so the drug concentration in the specimen can be measured in terms of enzyme activity. Active enzyme converts nicotinamide adenine dinucleotide (NAD) to NADH in the presence of glucose-6-phosphate (G6P), resulting in an absorbance change that is measured spectrophotometrically.
The EMIT® assay format comprises an antibody/substrate reagent, known as reagent 1. This reagent includes the antibody as well as buffers, preservatives, and stabilizers for the assay. The EMIT® assay format also comprises an enzyme reagent, known as reagent 2. This reagent includes the conjugate as well as buffers, preservatives, and stabilizers for the assay.

[4] = opiate enzyme multiplied immunoassay with antibody blocker (FIG. 11, FIG. 12); conditions: cutoff 300 ng/mL; FIG. 11 and FIG. 12
[5] = inhibition ELISA, anti-naltrexone monoclonal antibodies against key opioids (FIG. 8); assay type: binding; conditions: free drug 20 μg/mL, plates coated with ovalbumin conjugate
Text: as §1, §2

[6] = hydrocodone assay with antibody blocker (FIG. 13); conditions: cutoff 300 ng/ml

C=CCN1CC[C@]23c4c5ccc(O[C@@H]6O[C@H](C(=O)O)[C@@H](O)[C@H](O)[C@H]6O)c4O[C@H]2C(=O)CC[C@@]3(O)[C@H]1C5 [naloxone 3-B-D glucuronide]
level of cross-reactivity [1]: 70.6%

B1: 179B 9E7: anti-naloxone monoclonal antibody generated using naloxone-3-Val-mcKLH; heavy chain SEQ ID NO:241, light chain SEQ ID NO:245 (antibody)
heavy: MYLGLNCVIIVFLLKGVQSEMKLEESGGGLVQPGGSMKLSCTASGFTFSDAWMDWVRQSPEKGLEWVAEIRNKAYNHATYYAESVRGRFTISRDDSKSKMFLEMNSLRPEDTGIYYCIGGIWTDFDYGQGTTLTVSS
light: MESQTQVFVYMLLWLSGVDGDIVMTQSQKFMSTSVGDRVSVTCKASQNVGINVAWYQQKSGQPPKALIYSASSRYSGVPDRFTGSGSGTDFTLTISNVQSEDLAEYFCHQYNNYPLTFGAGTKLDLK
modifications: Amino acid sequence of heavy chain of monoclonal antibody 179B 9E7; Amino acid sequence of light chain of monoclonal antibody 179B 9E7
specificity for naloxone over the other key opioids tested in the inhibition ELISA assay [2]: good specificity for naloxone

B2: 179A 6H6: anti-naloxone monoclonal antibody generated using naloxone-3-Val-mcKLH; heavy chain SEQ ID NO:221, light chain SEQ ID NO:225 (antibody, V domains shown)
VH: MYLGLNCVIIVFLLKGVQSEVKLEESGGGLVPPGGSMKLSCSVSGFTFSDAWIDWVRQSPEKGLEWIAESRNKANNYAIYYTESVKGRFTISRDDSKSRVYLQMNNLRVEDTGIYYCTGPDYDSYWGGTLVTVSA
VL: MEFQTQVFVFVLLWLSGVDGDVVMTQSQKIMSTSVGDRVSITCKASQNVRTAVTWYQLKPGQSPKALIYLASNRHTGVPDRFRGSGSGTDFTLTIINVQSEDLADYFCLQHWNYPLTFGAGTKLELK
modifications: Amino acid sequence of heavy chain of monoclonal antibody 179A 6H6; Amino acid sequence of light chain of monoclonal antibody 179A 6H6
specificity for naloxone over the other key opioids tested in the inhibition ELISA assay [2]: good specificity for naloxone
detection of naloxone and naltrexone in specific assays [3]: detects both naloxone and naltrexone at substantially the same specificity
change of naloxone/naltrexone cross reactivity response in the presence of the antibody blocker [4]: cross reactivity of naloxone changes from a positive to a negative response to the cutoff

B3: 180C 2A12: anti-naltrexone monoclonal antibody generated using naltrexone-3-Val-mcKLH; heavy chain SEQ ID NO:1, light chain SEQ ID NO:5 (antibody)
heavy: MGWSWIFLFLLSGTAGVHCQVQLQQSGPELVKPGGSVKLSCKASGYIFNDYTIHWMKQSPGQGLEWIGWMNRRSFNTMYNDKFKGKATMTVDKSSSTAYIQLSSLTSDDSAVYFCVRDVYDNLDYWGQGTSVTVSSAKTTPPSVYPLAPGSAAQTNSMVTLGCLVKGYFPEPVTVTWNSGSLSSGVHTFPAVLQSDLYTLSSSVTVPSSTWPSETVTCNVAHPASSTKVDKKIVPRDCGCKPCICTVPEVSSVFIFPPKPKDVLTITLTPKVTCVVVDISKDDPEVQFSWFVDDVEVHTAQTQPREEQFNSTFRSVSELPIMHQDWLNGKEFKCRVNSAAFPAPIEKTISKTKGRPKAPQVYTIPPPKEQMAKDKVSLTCMITDFFPEDITVEWQWNGQPAENYKNTQPIMDTDGSYFIYSKLNVQKSNWEAGNTFTCSVLHEGLHNHHTEKSLSHSPGK
light: MKLPVRLLVLMFWIPASSSDVLMTQTPLSLPVSLGDQASISCRSSQSIVHSNGNTYLEWYLQKPGQSPRLLIYKVSNRFSGVPDRFSGSGSGTDFTLRISRVEAEDLGLYYCFQGSHVPLTFGAGTKLELKRADAAPTVSIFPPSSEQLTSGGASVVCFLNNFYPRDINVKWKIDGSERQNGVLNSWTDQDSKDSTYSMSSTLTLTKDEYERHNSYTCEATHKTSTSPIVKSFNRNEC
modifications: Amino Acid sequence of heavy chain of monoclonal antibody SHC 004; Amino acid sequence of Light Chain of monoclonal antibody SHC 004
specificity for naltrexone over the other key opioids tested in the inhibition ELISA assay [5]: good specificity for naltrexone
detection of naloxone and naltrexone in specific assays [3]: capable of detecting naloxone in addition to naltrexone, albeit at a lower specificity compared to naltrexone
effect of the antibody blocker on amount of naloxone and naltrexone giving a negative response [6]: increase the amount of naloxone and naltrexone that produces a negative response to the cutoff

B4: 180A 3D3: anti-naltrexone monoclonal antibody generated using naltrexone-3-Val-mcKLH; heavy chain SEQ ID NO:21, light chain SEQ ID NO:25 (antibody)
heavy: MYLGLNCVFIVFLLKGVQSEVNLEESGGGLVQPGGSMKLSCVASGFTFSNYWMNWVRQSPERGLEWVAEISLKSYNYATHYAESVKGRFTISGDESKNSVYLQMNNLRAEDTGIYFCTRGDSYALDYGQRTLVTVSS
light: MEFQTQVLMSLLLCMSGACADIVMTQSPTFLAVTVSKKVTISCTASESLYSSKHKVHYLAWYQKKPEQSPKLLIYGASNRYIGVPDRFTGSGSGTDFTLTISSVQVEDLTHYYCAQFYSYPYTFGGGKLEIK
modifications: Amino Acid sequence of heavy chain of monoclonal antibody 180A 3D3; Amino Acid sequence of light chain of monoclonal antibody 180A 3D3
specificity for naltrexone over the other key opioids tested in the inhibition ELISA assay [5]: good specificity for naltrexone
change of naloxone/naltrexone cross reactivity response in the presence of the antibody blocker [4]: cross reactivity of naloxone and naltrexone changes from a positive to a negative response to the cutoff

B5: 179B 10A7: anti-naloxone monoclonal antibody generated using naloxone-3-Val-mcKLH; heavy chain SEQ ID NO:201, light chain SEQ ID NO:205 (antibody, V domains shown)
VH: MGWSWIFLFLLSGTAGVHCQIQLQQSGPELVKPGASVKISCKASDYSFTKSYINWVKQRPGQGLEWIGWIYPGSANIKYNEKFRDKATLTVDTSSNTAYIQLSSLTSEDSAVYFCEMGTHYTYDVMDWGQGTSVTVSS
VL: MEFQTQVFVFVLLWLSGVDGDIVMTPSQKFMSTSVGDRVSITCKASQNVRTSVGWYQQKPGQSPKPLIYAASNRHTGVPDRFTGSGSGTDFSLTITNVQSEDQADYFCLQHWNYPWTFGGGTKLEIK
modifications: Amino acid sequence of heavy chain of monoclonal antibody 179B 10A7; Amino acid sequence of light chain of monoclonal antibody 179B 10A7
specificity for naloxone over the other key opioids tested in the inhibition ELISA assay [2]: good specificity for naloxone
